Numbering of substitutions follows the chain as printed. In names and notes the source's numbering stands.
T1: human FcγRIIB (human, UniProt P31994 43-310)
T1 construct: whole, on cells; also called hFcγRIIB
T1 sequence (looked up): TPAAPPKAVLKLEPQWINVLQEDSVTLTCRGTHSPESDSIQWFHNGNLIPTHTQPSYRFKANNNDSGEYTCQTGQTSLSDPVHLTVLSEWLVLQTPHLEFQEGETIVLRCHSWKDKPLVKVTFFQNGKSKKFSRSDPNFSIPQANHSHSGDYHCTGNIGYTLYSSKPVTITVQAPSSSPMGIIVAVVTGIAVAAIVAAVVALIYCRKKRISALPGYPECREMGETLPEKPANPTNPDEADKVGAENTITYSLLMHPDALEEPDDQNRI

B1: human FcγRIIA (H131) (receptor, UniProt P12318 34-317, looked up)
chain: QAAAPPKAVLKLEPPWINVLQEDSVTLTCQGARSPESDSIQWFHNGNLIPTHTQPSYRFKANNNDSGEYTCQTGQTSLSDPVHLTVLSEWLVLQTPHLEFQEGETIMLRCHSWKDKPLVKVTFFQNGKSQKFSHLDPTFSIPQANHSHSGDYHCTGNIGYTLFSSKPVTITVQVPSMGSSSPMGIIVAVVIATAVAAIVAAVVALIYCRKKRISANSTDPVKAAQFEPPGRQMIAIRKRQLEETNNDYETADGGYMTLNPRAPTDDDKNIYLTLPPNDHVNSNN
notes: whole, on cells; Allelic variant with His at 131 (mature numbering as printed)
B2: human FcγRIIA(R131) (receptor, UniProt P12318 34-317, looked up)
chain: B1 chain with H134R
notes: whole, on cells; Allelic variant with Arg at 131 (so in the source)
B3: human FcγRIIIB(NA2) (receptor, UniProt O75015 17-200, looked up)
chain: GMRTEDLPKAVVFLEPQWYSVLEKDSVTLKCQGAYSPEDNSTQWFHNESLISSQASSYFIDAATVNDSGEYRCQTNLSTLSDPVQLEVHIGWLLLQAPRWVFKEEDPIHLRCHSWKNTALHKVTYLQNGKDRKYFHHNSDFHIPKATLKDSGSYFCRGLVGSKNVSSETVNITITQGLAVSTIS
notes: whole, on cells
B4: human FcγRIIIB(NA1) (receptor, UniProt O75015 17-200, looked up)
chain: B3 chain with S20R, S49N, N66D, I90V
notes: whole, on cells
B5: human FcγRIIIB(SH) (receptor, UniProt O75015 17-200, looked up)
chain: B3 chain with A62D
notes: whole, on cells
B6: humanized antibody #2B1 (mutations L234A & L235E) (antibody, human IgG1, kappa)
heavy: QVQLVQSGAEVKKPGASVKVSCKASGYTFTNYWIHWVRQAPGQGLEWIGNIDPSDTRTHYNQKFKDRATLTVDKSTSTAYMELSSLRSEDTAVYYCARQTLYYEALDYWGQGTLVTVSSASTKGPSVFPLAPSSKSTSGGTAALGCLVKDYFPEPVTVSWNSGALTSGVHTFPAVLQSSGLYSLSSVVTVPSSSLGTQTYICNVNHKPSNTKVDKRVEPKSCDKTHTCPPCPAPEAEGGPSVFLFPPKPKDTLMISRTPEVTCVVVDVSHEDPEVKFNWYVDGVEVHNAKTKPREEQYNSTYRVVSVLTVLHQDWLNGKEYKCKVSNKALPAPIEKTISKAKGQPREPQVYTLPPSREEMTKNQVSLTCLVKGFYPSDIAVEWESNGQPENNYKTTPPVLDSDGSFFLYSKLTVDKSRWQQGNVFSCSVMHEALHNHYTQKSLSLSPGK
light: EIVMTQSPATLSVSPGERATLSCKASQDVSTAVAWYQQKPGQAPRLLIYWASTRHTGIPARFSGSRSGTEYTLTISSLQSEDFAVYYCQQDYSTPPTFGGGTKVEIKRTVAAPSVFIFPPSDEQLKSGTASVVCLLNNFYPREAKVQWKVDNALQSGNSQESVTEQDSKDSTYSLSSTLTLSKADYEKHKVYACEVTHQGLSSPVTKSFNRGEC
notes: #2B with L234A and L235E in the heavy chain constant region; also called Ab #2B1; copies: 2 + 2
B7: humanized antibody #2A (antibody, V domains shown)
VH: QVQLVQSGAEVKKPGASVKVSCKASGYTFTNYWIHWVRRAPGQGLEWIGNIDPSDTRTHYNQKFKDRATLTVDKSTSTAYMELSSLRSEDTAVYYCARQTLYYEALDYWGQGTLVTVSS
VL: EIVMTQSPATLSVSPGERATLSCKASQDVSTAVAWYQEKPGQAPRLLIYWASTRHTGIPARFSGSRSGTEYTLTISSLQSEDFAVYYCQQDYSTPPTFGGGTKVEIK
notes: CDR-grafted 14G9; version A keeps Arg H39 and Glu L38; also called Ab #2A

Key:
[1] = biological target: immune complex of #2B2 with sPLA2-GIB (human, UniProt P04054 23-148); assay: flow cytometry, antibody-antigen immune complex on CHO cells expressing the receptor
Sequence of immune complex of #2B2 with sPLA2-GIB (P04054 23-148, one chain of several): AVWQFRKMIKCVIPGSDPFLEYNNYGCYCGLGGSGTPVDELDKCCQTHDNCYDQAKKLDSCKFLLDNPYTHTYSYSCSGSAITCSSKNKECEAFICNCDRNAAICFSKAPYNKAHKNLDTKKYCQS
Experimental: Antibody-antigen immune complex were generated by co-incubation of 10 µg/ml of humanized antibodies and 5 μg/ml of sPLA2-GIB for 30 min at 37° C. Immune complexes were then incubated with 1×10⁵ CHO cells stably expressing human FcγRs for 30 min on ice. The cells were then washed, detached, fixed, and analyzed by flow cytometry (FACSCalibur; BD Biosciences).
(§1) The binding of monomeric #2B, #2B1 and #2B2 to human FcγRs was tested by flow cytometry by incubating the mAbs with CHO cells stably expressing human FcγRI, FcγRIIA (H131), FcγRIIA(R131), FcγRIIB, FcγRIIIA(F176), FcγRIIIA(V176), FcγRIIIB(NA1), FcγRIIIB(NA2), and FcγRIIIB(SH), (REF P. Bruhns). As presented in FIG. 9, #2B is binding to hFcγRI and hFcγRIIIA(V176) only, whereas no monomeric binding of #2B1 and #2B2 to all tested hFcγRs was observed. Antibody-antigen immune complex was tested by first incubating the mAb with the antigen and then, incubating the immune complexes formed with CHO cells stably expressing human FcγRs. The immune complexe of #2B is binding to all tested hFcγRs, except hFcγRIIB (FIG. 10). Weak binding is observed for immune complex of #2B1 to hFcγRIIIA(V176) (data not shown), whereas no immune complex binding of #2B2 to any tested hFcγRs (data not shown).

[2] = biological target: T2, recombinant human sPLA2-GIB (mature secreted group IB pancreatic phospholipase A2) (human, UniProt P04054 23-148); assay: SPR (BIAcore 2000), antibody captured, antigen in solution
T2 construct: also called sPLA2-IB; PLA2-GIB mature form
T2 sequence (P04054 23-148): as the sequence (P04054 23-148, one chain of several) above
Experimental: (§2) The affinity constants (KD) of the pro-sPLA2-GIB and sPLA2-GIB binding to the #2B, #2B1 and #2B2 antibodies were determined by surface kinetics on a real-time biosensor surface plasmon resonance assay (BIAcore™). More specifically, the affinity of the antibodies for human pro-sPLA2-IB and sPLA2-IB was measured using a BIAcore® 2000. The antibody was captured on an anti-mouse IgG surface and exposed to various concentrations of recombinant pro-sPLA2-IB and sPLA2-IB protein. Kinetic analysis using BIAevaluation™ software was performed to obtain the association and dissociation rate constants.
as §2, with “to” for “to the #2B,”, “#2B2” for “#2B2 antibodies”, “(BIAcore™).” for “(BIAcore™). More specifically, the affinity of the antibodies for human pro-sPLA2-IB and sPLA2-IB was measured using a BIAcore® 2000.”, “constants (Table 7).” for “constants.”

[3] = biological target: T3, recombinant human pro-sPLA2-GIB (human, UniProt P04054 16-148); assay: as above
T3 construct: also called pro-sPLA2-IB; proPLA2-GIB
T3 sequence (P04054 16-148): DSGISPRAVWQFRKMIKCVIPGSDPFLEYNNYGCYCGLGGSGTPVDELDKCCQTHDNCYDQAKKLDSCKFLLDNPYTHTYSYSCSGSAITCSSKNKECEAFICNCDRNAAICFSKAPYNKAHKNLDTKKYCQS
Experimental: as §2
as §2, with “to” for “to the #2B,”, “#2B2” for “#2B2 antibodies”, “(BIAcore™).” for “(BIAcore™). More specifically, the affinity of the antibodies for human pro-sPLA2-IB and sPLA2-IB was measured using a BIAcore® 2000.”, “constants (Table 7).” for “constants.”

human FcγRIIB = biological target: T1, human FcγRIIB; assay: flow cytometry, monomeric IgG on CHO cells expressing the receptor
Experimental: (§3) Monomeric IgG binding was tested by incubating the #2B, #2B1 and #2B2 antibodies (100 ng/mL) with 1×10⁵ CHO cells stably expressing human FcγRs for 30 min on ice. The cells were then washed, detached, fixed, and analyzed by flow cytometry (FACSCalibur; BD Biosciences).
as §1

human FcγRIIA (H131) = biological target: B1; assay: as above
Experimental: as §3, §1

human FcγRI = biological target: T4, human FcγRI (human, UniProt P12314 16-374); assay: as above
T4 construct: whole, on cells; also called hFcγRI
T4 sequence (P12314 16-374): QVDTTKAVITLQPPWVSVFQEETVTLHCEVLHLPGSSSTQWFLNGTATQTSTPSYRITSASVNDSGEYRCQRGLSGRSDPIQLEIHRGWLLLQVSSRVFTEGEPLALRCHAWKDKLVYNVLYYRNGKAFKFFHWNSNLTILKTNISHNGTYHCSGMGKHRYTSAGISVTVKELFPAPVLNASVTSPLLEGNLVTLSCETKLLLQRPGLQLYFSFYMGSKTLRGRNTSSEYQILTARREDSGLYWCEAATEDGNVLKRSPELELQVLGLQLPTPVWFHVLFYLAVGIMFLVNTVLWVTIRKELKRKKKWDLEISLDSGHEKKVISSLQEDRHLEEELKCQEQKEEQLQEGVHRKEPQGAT
Experimental: as §3, §1

human FcγRIIIB(NA1) = biological target: B4; assay: as above
Sequence of human FcγRIIIB(NA1) (O75015 other isoform, or with tags, fused parts or gaps): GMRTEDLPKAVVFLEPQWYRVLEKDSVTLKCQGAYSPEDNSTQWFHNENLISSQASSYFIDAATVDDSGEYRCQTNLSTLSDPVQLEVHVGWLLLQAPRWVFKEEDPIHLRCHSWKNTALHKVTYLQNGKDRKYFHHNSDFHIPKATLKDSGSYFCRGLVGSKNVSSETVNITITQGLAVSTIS
Experimental: as §3, §1

human FcγRIIIA(V176) = biological target: T5, human FcγRIIIA(V176) (human, UniProt P08637 17-254); assay: as above
T5 construct: whole, on cells; also called hFcγRIIIA(V176)
T5 sequence (P08637 17-254 F176V limits assumed): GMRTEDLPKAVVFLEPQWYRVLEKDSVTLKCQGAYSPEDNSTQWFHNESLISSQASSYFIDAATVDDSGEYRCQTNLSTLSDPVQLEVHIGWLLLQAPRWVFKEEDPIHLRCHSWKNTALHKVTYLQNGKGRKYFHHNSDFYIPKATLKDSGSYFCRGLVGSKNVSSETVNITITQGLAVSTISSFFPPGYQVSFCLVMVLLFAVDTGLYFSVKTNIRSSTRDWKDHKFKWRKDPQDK
Experimental: as §3, §1

human FcγRIIIB(NA2) = biological target: B3; assay: as above
Experimental: as §3, §1

human FcγRIIIB(SH) = biological target: B5; assay: as above
Sequence of human FcγRIIIB(SH) (O75015 17-200 N65S/A78D): as the sequence (O75015 other isoform, or with tags, fused parts or gaps) above, with R20S, N49S, A62D, D66N, V90I counted along it
Experimental: as §3, §1

human FcγRIIIA(F176) = biological target: T6, human FcγRIIIA(F176) (human, UniProt P08637 17-254); assay: as above
T6 construct: whole, on cells
T6 sequence (P08637 17-254): as the sequence (P08637 17-254 F176V limits assumed) above, with V160F counted along it
Experimental: as §3, §1

human FcγRIIA(R131) = biological target: B2; assay: as above
Experimental: as §3, §1

[4] = biological target: T2, recombinant human sPLA2-GIB (mature …); assay: competitive ELISA: constant antibody premixed with dilutions of soluble antigen, free antibody caught on antigen-coated plate
Experimental: (§4) Binding affinities of the humanized antibodies to pro-sPLA2-GIB and sPLA2-GIB were measured by plate-based competition immunoassay. For the competition ELISA, briefly, constant amounts of antibody at different levels were premixed with serial dilutions of antigen protein, human sPLA2-GIB or pro-sPLA2-GIB, ranging from 0 to 10 μg/ml, and incubated for two hours at room temperature to reach pseudo-binding equilibrium between the antibody and antigen. These solutions were then transferred to 96-well sPLA2-GIB or pro-sPLA2-GIB pre-coated plates to allow the free-antibody in the mixtures to bind to plate-coated sPLA2-GIB or pro-sPLA2-GIB. The plates were typically coated with 30 to 100 ng of human sPLA2-GIB or pro-sPLA2-GIB protein in PBS solution overnight at 4° C. followed by BSA nonspecific blocking. After washing off excess antibody in solution, plate-bound antibodies were detected with an HRP-conjugated goat anti-mouse IgG or IgA polyclonal antibody reagent and developed using colorimetric substrate. The dependency of the signals on the concentrations of antigen in solution was analyzed with a 4-parameter fit analysis using Prism™ software (Graph Pad) and reported as IC50.
(§5) The respective binding affinities of the humanized antibodies to human pro-sPLA2-GIB and human sPLA2-GIB were measured by plate-based competition immunoassay. Briefly, constant amounts of antibody at different levels were premixed with serial dilutions of antigen proteins to reach pseudo-binding equilibrium between the antibody and antigen. These solutions were then transferred to antigen pre-coated plates to allow the free-antibody in the mixtures to bind to plate-coated sPLA2-GIB or pro-sPLA2-GIB. Plate-bound antibodies were detected with an HRP-conjugated polyclonal antibody. Data were fitted with a 4PL logistic non-linear regression model and the relative IC50 values were estimated from the model (Table 4).

[5] = biological target: T3, recombinant human pro-sPLA2-GIB; assay: as above
Experimental: as §4, §5

Binder: B1
binding result [1]: no binding

Binder: B2
binding result [1]: no binding

Binder: B3
binding result [1]: no binding

Binder: B4
binding result [1]: no binding

Binder: B5
binding result [1]: no binding

Binder: B6
Kd [2]: 0.729 nM | koff [2]: 0.00203 s⁻¹ | kon [2]: 2.78e+06 M⁻¹ s⁻¹ | t½ [2]: 5.7 min | Kd [3]: 853 nM | koff [3]: 0.155 s⁻¹ | kon [3]: 181000 M⁻¹ s⁻¹ | t½ [3]: 0.074 min | binding result (human FcγRIIB): no binding (tested: 100 ng/mL) | binding result (human FcγRIIA (H131)): no binding (tested: 100 ng/mL) | binding result (human FcγRI): no binding (tested: 100 ng/mL) | binding result (human FcγRIIIB(NA1)): no binding (tested: 100 ng/mL) | binding result (human FcγRIIIA(V176)): no binding (tested: 100 ng/mL) | binding result (human FcγRIIIB(NA2)): no binding (tested: 100 ng/mL) | binding result (human FcγRIIIB(SH)): no binding (tested: 100 ng/mL) | binding result (human FcγRIIIA(F176)): no binding (tested: 100 ng/mL) | binding result (human FcγRIIA(R131)): no binding (tested: 100 ng/mL)

Binder: B7
IC50 [4]: 1.9 nM | IC50 [5]: 216 nM
